Data on one molecule can be found in PMC2936275 (Biochemistry, 2010).

One may read the EC50 as the concentration that produces a half-maximal response. The low end stands for greater potency, the high end for weaker potency. The Kd is the free concentration of one partner at which half of the binding sites on the other are occupied at equilibrium, for simple one-to-one binding.

Several values for one entry are separate records, joined by “and”; a condition that tells them apart may be missing. Identical values can stand only once.

For this assay, the target named is ONE-GC fragment aa 836-1110 (UniProt P51839 836-1110). Nature of the assay: SPR. A general note: SPR reads the build-up and loss of mass on a sensor chip optically.
Sequence of ONE-GC fragment aa 836-1110 (P51839 836-1110): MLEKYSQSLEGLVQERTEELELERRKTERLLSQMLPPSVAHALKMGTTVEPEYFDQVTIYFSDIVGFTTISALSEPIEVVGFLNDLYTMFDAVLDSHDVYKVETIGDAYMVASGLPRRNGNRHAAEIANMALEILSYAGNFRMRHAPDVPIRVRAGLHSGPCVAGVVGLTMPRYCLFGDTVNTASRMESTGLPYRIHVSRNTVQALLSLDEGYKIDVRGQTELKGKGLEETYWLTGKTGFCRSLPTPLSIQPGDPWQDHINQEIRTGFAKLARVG

B1: GCAP1 (guanylate cyclase activating protein 1), purified recombinant (natural protein, UniProt P46065 1-205, looked up)
chain: MGNIMDGKSVEELSSTECHQWYKKFMTECPSGQLTLYEFRQFFGLKNLSPWASQYVEQMFETFDFNKDGYIDFMEYVAALSLVLKGKVEQKLRWYFKLYDVDGNGCIDRDELLTIIRAIRAINPCSDSTMTAEEFTDTVFSKIDVNGDGELSLEEFMEGVQKDQMLLDTLTRSLDLTRIVRRLQNGEQDEEGASGRETEAAEADG
For the molecule B1, the EC50 is 500 nM; the Kd is 650 nM and 670 nM.
